Numbering of substitutions follows the chain as printed.
How the values were obtained:
[1] = biological target: T1, full-length human Nav1.7 fused at its N-terminus to GFP, expressed in HEK293 cells (human, UniProt Q15858 1-1988); experiment: flow cytometry; % stained hNav1.7-GFP-HEK293 minus parental HEK293
T1 construct: Voltage-gated sodium channel alpha subunit; In the Western blot it stood as denatured cell lysate; also called hNav 1.7-GFP-HEK293; Nav 1.7-GFP-HEK293; not shown: green fluorescent protein (GFP) at the N-terminus
Experimental: The binding of anti-Naᵥ 1.7 human antibodies to full-length Naᵥ 1.7 expressed in HEK293 cells was determined by flow cytometry (FACS). HEK293 cells were stably-transfected with full-length human Nav1.7 fused at its N-terminus to the green fluorescent protein (GFP) to generate cell line hNaᵥ 1.7-GFP-HEK293. Antibody binding to the transfected cells overexpressing Naᵥ 1.7 was compared to binding to the parental HEK293 cell line. To perform the binding experiments, adherent cells were collected using 1 mM EDTA in PBS, washed and re-suspended in cold PBS containing 5% FBS. For each binding experiment, the anti-Naᵥ 1.7 antibody (at concentrations ranging from 1 nM to 13 nM), was added to 250,000 cells in 500 μL of PBS with 5% FBS. After incubation for 20 minutes on ice, the secondary antibody, recognizing either human-Fc and conjugated to cyanine 5 (Cy5) or recognizing mouse-Fc and conjugated to allophyocyanin (APC), was then added to the cell mixture at a final secondary antibody concentration of 1.7 nM. After incubating for 20 minutes on ice, the cells were resuspended in PBS+5% FBS and then sorted and analyzed on a flow cytometer to determine relative binding by the candidate antibodies. For FACS analysis, gating was applied to examine only healthy live cells in the antibody binding experiments, and percentage stained was recorded. Staining of secondary antibodies alone to Naᵥ 1.7-GFP-HEK293 cells gave low background signals (1-2%). Specific binding was measured as the percent binding to Naᵥ 1.7-GFP-HEK293 cells minus percent binding to parental HEK293 cells.

[2] = biological target: T2, N-Term Biotin Nav1.7 (3-1) peptide, mouse (mouse, not fully specified; N-terminal biotin attached via a G4S linker); experiment: ELISA on coated peptide
T2 construct: Synthetic peptide; also called Mouse Nav1.7 3-1 N-term biotin
T2 peptide: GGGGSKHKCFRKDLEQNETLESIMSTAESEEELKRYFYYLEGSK
Experimental: (§1) Anti-Naᵥ 1.7 antibodies were tested for their ability to bind to the Naᵥ 1.7 peptides. The various peptides were coated overnight onto 96-well Nunc Immunosorp plates at a concentration of 4 μg/mL in PBS, followed by blocking for 1 hour in a suitable blocking agent. For biotinylated peptides, avidin was first coated on Nunc Immunosorp plates at 2 μg/mL in PBS overnight, followed by blocking as described, and the plate was then coated with biotinylated peptides at a concentration of 0.4 μg/mL and incubated for 1 hour at room temperature. Purified anti-Naᵥ 1.7 antibodies were diluted to a final concentration of 0.1 μg/mL and 1.0 μg/mL and added to the wells of the coated microtiter plates followed by incubation for 1 hour at room temperature. Bound antibodies were detected with horseradish peroxidase (HRP) conjugated anti-mouse or anti-human IgG (Jackson Immuno Research Lab, West Grove, Pa.) depending on the antibody species and developed by colorimetric response using tetramethylbenzidine (TMB) substrate (BD Biosciences). Absorbance was read at OD₄₅₀ on a plate reader for 0.1 second.
(§2) Values in Table 11 represent absolute binding ranges (at OD450) to plate-coated peptides for antibodies added at 1 μg/ml as follows: OD450<0.2: −; 0.2<OD450<1: +; 1<OD450<2: ++; 2<OD450<4: +++; NT: Not Tested.

[3] = biological target: T3, Native Nav1.7 (3-1) peptide, rat (rat); experiment: ELISA on coated peptide
T3 construct: Synthetic peptide; also called Rat Nav1.7 3-1 native
T3 peptide: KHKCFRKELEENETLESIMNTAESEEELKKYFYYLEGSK
Experimental: as §1, §2

[4] = biological target: T4, N-Term Biotin Nav1.7 (3-1) peptide, mulatta (mulatta (monkey), not fully specified; N-terminal biotin attached via a G4S linker); experiment: ELISA on coated peptide, antibody 1 ug/ml, OD450 grade
T4 construct: Synthetic peptide; also called Mulatta Nav1.7 3-1 N-term biotin; monkey
T4 peptide: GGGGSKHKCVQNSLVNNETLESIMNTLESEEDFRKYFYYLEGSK
Outline: (§3)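 Binding graded from absorbance at OD450 for antibodies applied at 1 μg/ml (− below 0.2, + 0.2–1, ++ 1–2, +++ 2–4; NT not tested); antibodies were also run at 0.1 μg/mL. Biotin-peptides at 0.4 μg/mL on avidin-coated plates, other peptides at 4 μg/mL; 1 h RT binding; HRP anti-IgG/TMB detection.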

[5] = biological target: T5, N-Term Biotin-Nav1.7 (3-1) peptide, human (human, not fully specified; N-terminal biotin attached via a G4S linker); experiment: as above
T5 construct: ELISA peptide
T5 peptide: T4 peptide with V10F, Q11R, V15E
Outline: as §3

[6] = biological target: T1, full-length human Nav1.7 fused at its …; experiment: cell-based or functional assay
[7] = biological target: T2, N-Term Biotin Nav1.7 (3-1) peptide, …; experiment: SPR, captured antibody, peptide analyte
Outline: (§4)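 Peptide analytes flowed at multiple concentrations over anti-Nav1.7 antibodies held by an anti-Fc capture surface. After reference-surface and buffer-blank subtraction, a global 1:1 Langmuir fit gave ka and kd, with KD as kd/ka and dissociative half-life as ln2/kd.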

[8] = biological target: T4, N-Term Biotin Nav1.7 (3-1) peptide, …; experiment: SPR, captured antibody, peptide analyte
Outline: as §4

[9] = biological target: T6, Native Nav1.7 (3-1) peptide, human (human); experiment: SPR, captured antibody, peptide analyte
T6 construct: Synthetic peptide (Celtek), unbiotinylated; also called Human Nav1.7 3-1 native; Nav1.7 3-1 native peptide
T6 peptide: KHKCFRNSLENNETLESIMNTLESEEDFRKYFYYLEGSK
Outline: as §4

[10] = biological target: T3, Native Nav1.7 (3-1) peptide, rat; experiment: SPR, captured antibody, peptide analyte
Outline: as §4

[11] = biological target: T7, C-term Biotin Nav1.7 (3-1) peptide, human (human, not fully specified; C-terminal biotin attached via a G4S linker); experiment: SPR, captured biotin-peptide, antibody analyte
T7 construct: Synthetic peptide; also called Human Nav1.7 3-1 C-term biotin
T7 peptide: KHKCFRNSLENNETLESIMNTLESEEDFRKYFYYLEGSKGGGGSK

[12] = biological target: T8, Native Nav1.7 (3-3) peptide, human (human); experiment: SPR, captured antibody, peptide analyte
T8 construct: Synthetic peptide, unbiotinylated; also called Human Nav1.7 3-3 native; Nav1.7 3-3 native peptide
T8 peptide: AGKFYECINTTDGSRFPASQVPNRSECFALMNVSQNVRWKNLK
Outline: as §4

[13] = biological target: T9, C-Term Biotin Nav1.7 (3-3) peptide, rat (rat, C-terminal biotin attached via a G4S linker); experiment: SPR, captured antibody, peptide analyte
T9 construct: Synthetic peptide; also called Rat Nav1.7 3-3 C-term biotin
T9 peptide: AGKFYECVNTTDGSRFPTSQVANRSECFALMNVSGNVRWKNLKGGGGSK
Outline: as §4

[14] = biological target: T10, C-Term Biotin Nav1.7 (3-3) peptide, mouse (mouse, C-terminal biotin attached via a G4S linker); experiment: SPR, captured antibody, peptide analyte
T10 construct: Synthetic peptide; also called Mouse Nav1.7 3-3 C-term biotin
T10 peptide: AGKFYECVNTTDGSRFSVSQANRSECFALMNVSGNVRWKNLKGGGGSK
Outline: as §4

[15] = biological target: T11, C-term Biotin Nav1.7 (3-3) peptide, human (human, C-terminal biotin attached via a G4S linker); experiment: SPR, captured biotin-peptide, antibody analyte
T11 construct: Synthetic peptide; also called Human Nav1.7 3-3 C-term biotin
T11 peptide: T9 peptide with V8I, T18A, A22P, G35Q

[16] = biological target: T1, full-length human Nav1.7 fused at its …; experiment: flow cytometry on Nav1.7-GFP-HEK293, antibody 3.3 nM
Experimental: The specificity of binding of anti-Naᵥ 1.7 human antibodies to full-length Naᵥ 1.7 expressed in HEK293 cells was determined by peptide competition experiments using flow cytometry.
HEK293 cells stably-transfected with full-length Naᵥ 1.7 fused at its N-terminus to GFP (Naᵥ 1.7-GFP-HEK293) were used for this study. Antibody binding to the transfected cells overexpressing Naᵥ 1.7 was compared to binding in the presence of excess peptide and to binding to the parental HEK293 cell line. To perform the binding experiments, adherent cells were collected using 1 mM EDTA in PBS, washed and re-suspended in cold PBS containing 5% FBS. For each binding experiment the anti-Naᵥ 1.7 antibody at a final concentration of 3.3 nM (in PBS/5% FBS) was added to cells either directly or after incubating for 10 min on ice with a 1000-fold molar excess (3.3 uM final concentration in PBS/5% FBS) of synthetic peptide with sequence corresponding to the loop specificity of the antibody. The antibodies designated as H4H391P, H4H443B, H4H448B, and H1M797N were preincubated as described above with a synthetic peptide corresponding to EC loop 3-1 (amino acid residues 269-338 of SEQ ID NO: 670), whereas the antibodies designated as H4H468P and H1 M852N were preincubated with a synthetic peptide corresponding to EC loop 3-3 (amino acid residues 1333-1382 of SEQ ID NO: 670). The antibody or antibody-peptide mixture was then allowed to incubate with cells for 20 min on ice, followed by addition of 500 uL of cold PBS/5% FBS. Cells were collected by centrifugation, resuspended in 500 uL of cold PBS/5% FBS, and then secondary antibody matched to the antibody isotype (either anti-human-Fc conjugated to Cyanine 5 or anti-mouse-Fc conjugated to allophyococyanin) was added. Binding was detected on the flow cytometry instrument and analyzed as percent binding using the instrument software. For FACS analysis appropriate gating was applied so that only healthy, live cells were counted. Background staining of secondary antibodies alone to Naᵥ 1.7-GFP-HEK293 cells was tested and recorded for all samples, and results ranged between 1-2% binding.

B1: H2M799N (antibody, V domains shown)
VH: EVQLVESGGGLVQPGGSLRLSCAASGFTFSIFWMNWVRQAPGKGLEWVAKIKQDGSEKYYVDSMKGRFTISRDNVKNSLYLQMNSLRAEDTAVYYCARGVWGSYRYTSSGLDVWGQGTTVTVSS
VL: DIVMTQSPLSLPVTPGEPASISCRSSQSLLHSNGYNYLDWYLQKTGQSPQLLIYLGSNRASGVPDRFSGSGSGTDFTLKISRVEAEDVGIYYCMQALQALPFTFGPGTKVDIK
notes: Hybridoma-derived
[1]
  % Binding Nav1.7: 5.7%
[2]
  OD450: < 0.2 od
[3]
  OD450: < 0.2 od
[4]
  OD450: 2 to 4 od
[5]
  OD450: 2 to 4 od
[6]
  Current blocking (Average % inhibition), IonWorks Quattro, 223 nM antibody: 6%
[7]
  binding result: no binding
[8]
  Kd: 4.14 nM
  t1/2: 27.4 min
[9]
  Kd: 9.93 nM
  t1/2: 17.5 min
[10]
  binding result: no binding
[11]
  Kd: 0.815 nM
  t1/2: 106 min

B2: H4H468P (antibody, V domains shown)
VH: QVQLVESGGGVVQPGRSLRLSCTASGFTFSVYGIHWVRQAPGKGLEWVAVIWYDGSNKYYTDSVKGRFTISRDNSKNTLYLQMNSLRAEDTALYYCAREGDLSSSSGSGGYHYVVDVWGQGTTVTVSS
VL: AIQMTQSPSSLSASVGDRVTITCRASQDIRNDLGWYQQKPGNAPKLLIYSTSSLQSGVPSRFSGSGSGTDFTLTISSLQPEDFATYYCLQDYNYPLTFGGGTKVEIK
notes: also called REGN1064
[1]
  % Binding Nav1.7: 71.8%
[12]
  Kd: 630 nM
  t1/2: 0.31 min
[13]
  binding result: no binding
[14]
  binding result: no binding
[15]
  Kd: 47.2 nM
  t1/2: 1.3 min
[11]
  binding result: no binding
[16]
  % Binding Nav1.7 (Stable Line): 89.5%

B3: H4H471P (antibody, V domains shown)
VH: QVQLVESGGGLVKPGGSLRLSCAASGVTFSDYYMTWIRQAPGKGLEWVSYISTDGRTIYYADSVKGRFTISRDNAKNSLYLQMNNLRAEDTAVYYCARGVDSDDYEDFYSYYDMDVWGQGTTVTVSS
VL: DIQMTQSPSSLSASVGDRVTITCRASQGISNYLAWFQQKPGKAPKSLIYAASSLQGGVPSRFSGSGSGTDFTLTISSLQPEDFATYYCQQYNSYPLTFGGGTKVEIK
[12]
  Kd: 16 nM
  t1/2: 17 min
[13]
  binding result: no binding
[15]
  Kd: 0.138 nM
  t1/2: 743 min
[11]
  binding result: no binding

B4: H4H362B (antibody, V domains shown)
VH: QVQLVESGAEVKKPGASVKVSCKASGYTFTTYGISWVRQAPGQGLEWMGWISAYNGKTNYAQKFQGRVTMTTDTSTNTAYMELRSLRFDDTAVYYCARDGGTPFYYWGQGTLVTVSS
VL: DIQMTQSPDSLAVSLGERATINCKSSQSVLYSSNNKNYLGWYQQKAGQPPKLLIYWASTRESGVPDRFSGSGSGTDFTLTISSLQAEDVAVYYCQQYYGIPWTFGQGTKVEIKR
[1]
  % Binding Nav1.7: 3.7%
[2]
  OD450: < 0.2 od
[4]
  OD450: 2 to 4 od
[5]
  OD450: 2 to 4 od
[6]
  Current blocking (Average % inhibition), IonWorks Quattro, 223 nM antibody: 25.5%
[7]
  binding result: no binding
[8]
  Kd: 0.257 nM
  t1/2: 36.1 min
[9]
  Kd: 0.612 nM
  t1/2: 8.6 min
[11]
  Kd: 0.218 nM
  t1/2: 101 min
